Series [1] concerns the target T1, Zymomonas mobilis glucose 6-phosphate dehydrogenase EC 1.1.1.49 (Zymomonas mobilis subsp. mobilis, UniProt P21907).
T1 construct: endogenous in cells; host or cells: Zymomonas mobilis cells (enzyme extracted and purified from the organism itself)
T1 sequence (P21907 1-485): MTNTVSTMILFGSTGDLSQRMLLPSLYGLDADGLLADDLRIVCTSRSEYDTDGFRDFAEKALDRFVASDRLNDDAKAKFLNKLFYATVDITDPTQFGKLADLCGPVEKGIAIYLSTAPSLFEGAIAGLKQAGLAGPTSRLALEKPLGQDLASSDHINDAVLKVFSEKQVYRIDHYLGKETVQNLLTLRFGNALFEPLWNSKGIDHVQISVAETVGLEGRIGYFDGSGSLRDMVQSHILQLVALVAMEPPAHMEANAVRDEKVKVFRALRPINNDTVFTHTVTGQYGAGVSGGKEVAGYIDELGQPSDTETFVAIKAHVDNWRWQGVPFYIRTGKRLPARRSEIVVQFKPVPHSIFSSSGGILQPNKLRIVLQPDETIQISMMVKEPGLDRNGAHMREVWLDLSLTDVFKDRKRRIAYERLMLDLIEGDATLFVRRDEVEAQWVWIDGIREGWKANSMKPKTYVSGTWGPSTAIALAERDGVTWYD
It counts as biochemical. To be noted: assay conditions: 25° C., 50 mM Tris-Cl buffer, pH 8.0.

The target in series [2] is T2, Zymomonas mobilis fructokinase EC 2.7.1.4 (Zymomonas mobilis subsp. mobilis, UniProt Q03417).
T2 construct: endogenous in cells; host or cells: Zymomonas mobilis cells (enzyme extracted and purified from the organism itself)
T2 sequence (Q03417 1-301): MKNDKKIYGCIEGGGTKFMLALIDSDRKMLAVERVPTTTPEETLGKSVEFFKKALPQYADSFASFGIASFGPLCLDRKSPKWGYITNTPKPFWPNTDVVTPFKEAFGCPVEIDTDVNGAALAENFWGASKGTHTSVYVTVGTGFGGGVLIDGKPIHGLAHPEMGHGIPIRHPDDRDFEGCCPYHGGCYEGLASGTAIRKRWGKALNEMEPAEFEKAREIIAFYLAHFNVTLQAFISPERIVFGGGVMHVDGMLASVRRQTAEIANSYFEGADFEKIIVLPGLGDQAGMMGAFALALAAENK
Briefly: Kinetic properties, sugar specificity and glucose inhibition of purified fructokinase. In kind it is biochemical. The source says: The active enzyme may be concentrated by ultrafiltration and stored frozen or freeze-dried.

Substrate in series [3]: NC(=O)c1ccc[n+]([C@@H]2O[C@H](COP(=O)([O-])OP(=O)(O)OC[C@H]3O[C@@H](n4cnc5c(N)ncnc54)[C@H](O)[C@@H]3O)[C@@H](O)[C@H]2O)c1
The series can be described thus: purified protein, by the assay type. It counts as biochemical, Zymomonas mobilis. To be noted: other: assay conditions printed: 25° C., 50 mM Tris-Cl buffer, pH 8.0.

Substrate in series [4]: NC(=O)c1ccc[n+]([C@@H]2O[C@H](COP(=O)([O-])OP(=O)(O)OC[C@H]3O[C@@H](n4cnc5c(N)ncnc54)[C@H](OP(=O)(O)O)[C@@H]3O)[C@@H](O)[C@H]2O)c1
The series can be described thus: purified protein, by the assay type. Particulars: other: assay conditions printed: 25° C., 50 mM Tris-Cl buffer, pH 8.0, pH 8.0.

Substrate in series [5]: OC[C@H]1OC(O)[C@H](O)[C@@H](O)[C@@H]1O
The series can be described thus: purified protein, by the assay type. Particulars: other: approximate values, assay conditions: 25° C., 50 mM K-Morpholinopropane sulphonate, 30 mM NaCl, 2 mM MgCl2, pH 6.8, pH 6.8.

Substrate in series [6]: Nc1ncnc2c1ncn2[C@@H]1O[C@H](COP(=O)(O)OP(=O)(O)OP(=O)(O)O)[C@@H](O)[C@H]1O
Briefly: Kinetic properties and sugar specificity of purified glucokinase. In kind it is biochemical, Zymomonas mobilis. To be noted: other: approximate values, assay conditions: 25° C., 50 mM K-Morpholinopropane sulphonate, 30 mM NaCl, 2 mM MgCl2, pH 6.8.

Substrate in series [7]: Nc1ncnc2c1ncn2[C@@H]1O[C@H](COP(=O)(O)OP(=O)(O)OP(=O)(O)O)[C@@H](O)[C@H]1O
The series can be described thus: purified protein, by the assay type. In kind it is biochemical, Zymomonas mobilis. To be noted: other: assay conditions printed: 50 mM K-morpholino propane sulphonate buffer, 30 mM NaCl, 2 mM MgCl2 pH 6.8.

Substrate in series [8]: O=C(CO)[C@@H](O)[C@H](O)[C@H](O)CO
Briefly: purified protein, by the assay type. It counts as biochemical, Zymomonas mobilis. To be noted: other: assay conditions printed: 50 mM K-morpholino propane sulphonate buffer, 30 mM NaCl, 2 mM MgCl2 pH 6.8.

By Km is commonly meant the substrate concentration at which the rate is half of its maximum. “glucose 6-phosphate [glucose 6-phosphate dehydrogenase]”: the Km in series [1] was determined as 170 µM.
A word on the Ki: it is the dissociation constant of the complex between target and ligand, obtained from inhibition or displacement. For `OC[C@H]1OC(O)[C@H](O)[C@@H](O)[C@@H]1O` (stereo partly drawn) [glucose], affinity in series [2] (competitive inhibitor with fructose) was put at a Ki of 200 µM. In addition, in series [2] (glucose at 5-10 mM or more, low levels of fructose), the “enzyme activity in the presence of glucose” value was “essentially inactive”.

B1: Zymomonas mobilis glucose 6-phosphate dehydrogenase EC 1.1.1.49 (Zymomonas mobilis subsp. mobilis ZM4 = ATCC 31821) (protein)
chain: MTNTVSTMILFGSTGDLSQRMLLPSLYGLDADGLLADDLRIVCTSRSEYDTDGFRDFAEKALDRFVASDRLNDDAKAKFLNKLFYATVDITDPTQFGKLADLCGPVEKGIAIYLSTAPSLFEGAIAGLKQAGLAGPTSRLALEKPLGQDLASSDHINDAVLKVFSEKQVYRIDHYLGKETVQNLLTLRFGNALFEPLWNSKGIDHVQISVAETVGLEGRIGYFDGSGSLRDMVQSHILQLVALVAMEPPAHMEANAVRDEKVKVFRALRPINNDTVFTHTVTGQYGAGVSGGKEVAGYIDELGQPSDTETFVAIKAHVDNWRWQGVPFYIRTGKRLPARRSEIVVQFKPVPHSIFSSSGGILQPNKLRIVLQPDETIQISMMVKEPGLDRNGAHMREVWLDLSLTDVFKDRKRRIAYERLMLDLIEGDATLFVRRDEVEAQWVWIDGIREGWKANSMKPKTYVSGTWGPSTAIALAERDGVTWYD
notes: endogenous in cells; host or cells: Zymomonas mobilis cells (enzyme extracted and purified from the organism itself)
Turning to B1, the Km in series [3] amounted to 210 µM; in series [4], 40 µM.

B2: Zymomonas mobilis glucokinase EC 2.7.1.2 (Zymomonas mobilis subsp. mobilis ZM4 = ATCC 31821) (protein)
chain: MEIVAIDIGGTHARFSIAEVSNGRVLSLGEETTFKTAEHASLQLAWERFGEKLGRPLPRAAAIAWAGPVHGEVLKLTNNPWVLRPATLNEKLDIDTHVLINDFGAVAHAVAHMDSSYLDHICGPDEALPSDGVITILGPGTGLGVAHLLRTEGRYFVIETEGGHIDFAPLDRLEDKILARLRERFRRVSIERIISGPGLGNIYEALAAIEGVPFSLLDDIKLWQMALEGKDNLAEAALDRFCLSLGAIAGDLALAQGATSVVIGGGVGLRIASHLPESGFRQRFVSKGRFERVMSKIPVKLITYPQPGLLGAAAAYANKYSEVE
notes: Glucokinase so obtained is almost homogenous by electrophoretic criteria; endogenous in cells; host or cells: Zymomonas mobilis cells (enzyme extracted and purified from the organism itself)
Consider B2, for which the Km in series [5] stood at 200 µM; in series [6], 800 µM.

B3: Zymomonas mobilis fructokinase EC 2.7.1.4 (Zymomonas mobilis subsp. mobilis ZM4 = ATCC 31821) (protein)
chain: MKNDKKIYGCIEGGGTKFMLALIDSDRKMLAVERVPTTTPEETLGKSVEFFKKALPQYADSFASFGIASFGPLCLDRKSPKWGYITNTPKPFWPNTDVVTPFKEAFGCPVEIDTDVNGAALAENFWGASKGTHTSVYVTVGTGFGGGVLIDGKPIHGLAHPEMGHGIPIRHPDDRDFEGCCPYHGGCYEGLASGTAIRKRWGKALNEMEPAEFEKAREIIAFYLAHFNVTLQAFISPERIVFGGGVMHVDGMLASVRRQTAEIANSYFEGADFEKIIVLPGLGDQAGMMGAFALALAAENK
notes: as for B1
B3: the Km in series [7] is 400 µM; in series [8] it was 500 µM.

These data come from US4623625A, “Enzyme extraction and purification processes” (priority 1983, dated 1986).
